Data as given in patent US20250197820A1, “NUCLEIC ACID POLYMERASE AND ITS USE IN PRODUCING NON-DNA NUCLEOTIDE POLYMERS” (UNITED KINGDOM RESEARCH AND INNOVATION, priority 2021, published 2025).

Columns and labels:
2M = target: T1, 2M (Thermococcus gorgonarius, UniProt P56689, A485L/D141A/E143A/E664K/F545L/I521L/K592A/T541G/V93Q/Y409G); assay: Steady-state kinetics of single nucleotide incorporation by 2M; type: biochemical; settings: single nucleotide incorporation from 2′OMe-RNA primer; for improvement of KM value compared to ATP: 50° C.
T1 construct: made in house; host or cells: E. coli BL21 CodonPlus-RIL
Experimental: Steady-state kinetic parameters for NTP incorporation by 2M were determined by performing initial velocity measurements of single incorporations of either ATP, 2′OMe-ATP, or MOE-ATP. To generate the 2′OMe-RNA/DNA substrate, a 20-mer 2′OMe-RNA primer FD was 5′ 6-carboxyfluorescein end-labeled and annealed to the 52-mer DNA template BFL770 (Supplementary Table 1) at a 1:1.2 molar ratio. The reactions were performed at 50° C. in a mixture containing 1× Thermopol buffer, 6 mM Mg^2+, 100 nM 2′OMe-RNA/DNA substrate, and at NTP concentrations ranging from 0.5-250 μM. Enzyme concentrations and reaction times were selected to maintain initial velocity conditions. The 25 μL reactions were stopped by addition of a quenching solution containing 100 mM EDTA, 80% deionized formamide, 0.25 mg/ml bromophenol blue and 0.25 mg/ml xylene cyanol. Moreover, less than 20% of the primers were extended as required for steady-state conditions.
Product and substrate were separated on a 22% denaturing (8 M urea) polyacrylamide gel. The resulting bands were quantified using a Cytiva Typhoon RGB imager in fluorescence mode. Steady-state kinetic parameters (KM, kcat) were determined by fitting the data to the Michaelis-Menten equation. The data are the means and standard error from three independent experiments.

VEGF165 [1] = target: T2, VEGF165 (Homo sapiens, UniProt P15692-4 P15692-4:27-191); assay: SPR; overall mean +/-29; PBS + 0.1% Tween20, 20 C; double-exponential fit; settings: tags: biotinylated, Bio-Techne, captured on Neutravidin chip; chain copies: 2
Experimental: (§1) 2′OMe/MOE-RNA aptamers were synthesized from RNA primer Prim1 and 3′-biotinylated DNA template Temp_ARC224 (Supplementary Table 1) as described in section “Synthesis of 2′OMezymes for characterization” using 2′OMe/MOE-NTPs. 2′OMe/MOE-RNA aptamers were annealed at 1-10 μM in nuclease-free water by heating to 95° C. for 5 min and equilibrating at RT for 10 min. They were then diluted and analysed in PBS+0.1% (v/v) Tween20 (PBS-Tw). Surface Plasmon Resonance (SPR) measurements were made using a BIAcore 2000 instrument (GE Life Sciences, UK) at a flow rate of 20 μLmin⁻¹ at 20° C. CM4 sensor chip (GE Life Sciences, UK) surfaces were coated with Neutravidin (Pierce 31000, ThermoFisher Scientific, USA) surfaces (˜8000 RU per flow cell) using an amine coupling kit (GE Life Sciences, UK) and flowing in 5 mM NaOAc (sodium acetate), pH 5.5. Chips were equilibrated in PBS Tw and left to flow overnight until signal drift had settled. ˜2000 RU biotinylated human VEGF165 (Bio-Techne, USA) was captured (except for the reference cell) before blocking with excess free biotin. 50 μL aptamer samples at a series of concentrations (500 nM, 250 nM, 125 nM, 62.5 nM, 31.3 nM, 15.6 nM, 7.8 nM, 3.9 nM) were injected for 150 s and dissociation was recorded for 600 s, in PBS-Tw. Single injections of aptamers outside of the concentration series were performed at 100 nM (50 μL) in PBS-Tw. […]

template TempNpure = assay: Primer extension on defined-sequence template (denaturing PAGE); type: biochemical
Experimental: (§2) Analytical primer extension reactions were carried out in 1× Thermopol buffer (NEB) supplemented with MgSO4 (4 mM). Primer (100 nM) was extended on a template (200 nM) with appropriate nucleoside triphosphates (125-250 μM each) by purified polymerase (10-100 μg/mL) in a 10-μL reaction volume. Reactions were carried out at 65° C. Primer extension products were analysed via urea-PAGE. All extensions with MOE-NTPs on defined-sequence template TempNpure required post-synthesis template capture with a ten-fold excess of antisense template, Turbo DNase (Invitrogen) treatment, subsequent Proteinase K (NEB) treatment, and loading on the urea-PAGE gel with a ten-fold excess of antisense template. Primer extensions with MOE-NTPs on template sfGFP required polymerase concentrations of 500 μg/mL.

[2] = tested on: random N40 template Tag3.3-N40-Test2; assay: Primer extension on random N40 template (denaturing PAGE, densitometry); type: biochemical
Experimental: as §2

template sfGFP = assay: Long-range synthesis of a GFP transcript; type: biochemical; settings: 2′OMe-RNA primer Synth-out1mm
Experimental: as §2

VEGF165 [3] = target: T2, VEGF165; assay: SPR; overall mean +/-16; PBS + 0.1% Tween20, 20 C; double-exponential fit; settings: tags: biotinylated, Bio-Techne, captured on Neutravidin chip; chain copies: 2
Experimental: as §1

VEGF165 [4] = target: T2, VEGF165; assay: SPR; overall mean +/-88; PBS + 0.1% Tween20, 20 C; double-exponential fit; settings: tags: biotinylated, Bio-Techne, captured on Neutravidin chip; chain copies: 2
Experimental: as §1

[5] = FIG. 1g, RNA/2′OMe-RNA primer A-Test2, full length +79 nt
[6] = FIG. 3e, 2′OMe-RNA primer A-Test2, full length +79 nt

T2 sequence (P15692 other isoform, or with tags, fused parts or gaps): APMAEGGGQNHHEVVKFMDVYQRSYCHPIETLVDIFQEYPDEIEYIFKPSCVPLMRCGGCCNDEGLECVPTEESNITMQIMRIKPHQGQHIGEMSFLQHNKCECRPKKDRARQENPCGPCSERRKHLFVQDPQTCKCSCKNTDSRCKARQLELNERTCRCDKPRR

`CO[C@@H]1[C@H](O)[C@@H](COP(=O)(O)OP(=O)(O)OP(=O)(O)O)O[C@H]1n1cnc2c(N)ncnc21` [2′OMe-ATP] was tested, and the “Vmax/kcat values for incorporation” value (2M) was “essentially identical” and the “improvement of KM value compared to ATP” value (2M) was “approximately 5 fold”.

With `COCCOC1C(O)C(COP(=O)(O)OP(=O)(O)OP(=O)(O)O)OC1n1cnc2c(N)ncnc21` (centres unmarked) [MOE-ATP] the “Vmax/kcat values for incorporation” value (2M) was “essentially identical” and the “improvement of KM value compared to ATP” value (2M) was “approximately 5 fold”.

For CGATATGCAGTTTGAGAAGTCGCGCATTCG (XNA, 2'-OMe G and U, 2'-O-MOE A and C) [ARC224 2'OMe-GU MOE-AC], the Kd (VEGF165 [1]) was 30 nM.

B1: TGLLK: Tgo: V93Q, D141A, E143A, Y409G, A485L, I521L, F545L, E664K; previously described parent polymerase (protein, UniProt P56689 1-773, looked up, variant V93Q D141A E143A Y409G A485L I521L F545L E664K)
DNA polymerase: MILDTDYITEDGKPVIRIFKKENGEFKIDYDRNFEPYIYALLKDDSAIEDVKKITAERHGTTVRVVRAEKVKKKFLGRPIEVWKLYFTHPQDQPAIRDKIKEHPAVVDIYEYDIPFAKRYLIDKGLIPMEGDEELKMLAFAIATLYHEGEEFAEGPILMISYADEEGARVITWKNIDLPYVDVVSTEKEMIKRFLKVVKEKDPDVLITYNGDNFDFAYLKKRSEKLGVKFILGREGSEPKIQRMGDRFAVEVKGRIHFDLYPVIRRTINLPTYTLEAVYEAIFGQPKEKVYAEEIAQAWETGEGLERVARYSMEDAKVTYELGKEFFPMEAQLSRLVGQSLWDVSRSSTGNLVEWFLLRKAYERNELAPNKPDERELARRRESYAGGYVKEPERGLWENIVYLDFRSLGPSIIITHNVSPDTLNREGCEEYDVAPQVGHKFCKDFPGFIPSLLGDLLEERQKVKKKMKATIDPIEKKLLDYRQRLIKILANSFYGYYGYAKARWYCKECAESVTAWGRQYLETTIREIEEKFGFKVLYADTDGFLATIPGADAETVKKKAKEFLDYINAKLPGLLELEYEGFYKRGFFVTKKKYAVIDEEDKITTRGLEIVRRDWSEIAKETQARVLEAILKHGDVEEAVRIVKEVTEKLSKYEVPPEKLVIYKQITRDLKDYKATGPHVAVAKRLAARGIKIRPGTVISYIVLKGSGRIGDRAIPFDEFDPAKHKYDAEYYIENQVLPAVERILRAFGYRKEDLRYQKTRQVGLGAWLKPKT
In the case of B1, the “2′OMe-RNA synthesis activity (in words)” value (template TempNpure; denaturing PAGE) is reported as “comparatively inefficient”, the “densitometry of N40 synthesis yield, 2′OMe-RNA” value (“densitometry … 2′OMe-RNA” for short) [2, 5] is reported as 0% and the “densitometry … 2′OMe-RNA” value [2, 6] is reported as 1%. The “densitometry of N40 synthesis yield, MOE-RNA” value [2, 6] was 0%.

B2: 2M: Tgo polymerase with V93Q, D141A, E143A, Y409G, A485L, I521L, T541G, F545L, K592A, E664K (SEQ ID NO: 3) (protein)
chain: MILDTDYITEDGKPVIRIFKKENGEFKIDYDRNFEPYIYALLKDDSAIEDVKKITAERHGTTVRVVRAEKVKKKFLGRPIEVWKLYFTHPQDQPAIRDKIKEHPAVVDIYEYDIPFAKRYLIDKGLIPMEGDEELKMLAFAIATLYHEGEEFAEGPILMISYADEEGARVITWKNIDLPYVDVVSTEKEMIKRFLKVVKEKDPDVLITYNGDNFDFAYLKKRSEKLGVKFILGREGSEPKIQRMGDRFAVEVKGRIHFDLYPVIRRTINLPTYTLEAVYEAIFGQPKEKVYAEEIAQAWETGEGLERVARYSMEDAKVTYELGKEFFPMEAQLSRLVGQSLWDVSRSSTGNLVEWFLLRKAYERNELAPNKPDERELARRRESYAGGYVKEPERGLWENIVYLDFRSLGPSIIITHNVSPDTLNREGCEEYDVAPQVGHKFCKDFPGFIPSLLGDLLEERQKVKKKMKATIDPIEKKLLDYRQRLIKILANSFYGYYGYAKARWYCKECAESVTAWGRQYLETTIREIEEKFGFKVLYADGDGFLATIPGADAETVKKKAKEFLDYINAKLPGLLELEYEGFYKRGFFVTKAKYAVIDEEDKITTRGLEIVRRDWSEIAKETQARVLEAILKHGDVEEAVRIVKEVTEKLSKYEVPPEKLVIYKQITRDLKDYKATGPHVAVAKRLAARGIKIRPGTVISYIVLKGSGRIGDRAIPFDEFDPAKHKYDAEYYIENQVLPAVERILRAFGYRKEDLRYQKTRQVGLGAWLKPKT
B2 was tested, and the “time to reach full length synthesis (+72 nt), 2′OMe-RNA” value (template TempNpure; 2′OMe-RNA primer FD) was under 5 min, the “time to reach full length synthesis (+72 nt), MOE-RNA” value (template TempNpure; 2′OMe-RNA primer FD) was under 20 min and the “2′OMe-RNA synthesis activity (in words)” value (template TempNpure; denaturing PAGE) was “striking increase in 2′OMe-RNA synthesis activity”. The “MOE-RNA synthesis (in words)” value (template TempNpure; denaturing PAGE) was “able to efficiently synthesize MOE-RNA”, the “long-range 2′OMe-RNA synthesis length” value (template sfGFP) was 750 nt and the “long-range MOE-RNA synthesis length” value (template sfGFP) was 750 nt. The “time to reach full length synthesis (+79 nt), 2′OMe-RNA” value ([2]; 2′OMe-RNA primer FD-Test2) was under 10 min, the “time to reach full length synthesis (+79 nt), DNA” value ([2]; 2′OMe-RNA primer FD-Test2) was under 1 min and the “time to reach full length synthesis (+79 nt), MOE-RNA” value ([2]; 2′OMe-RNA primer FD-Test2) was under 30 min. For the same molecule, the “densitometry … 2′OMe-RNA” value [2, 5] was 90%, the “densitometry … 2′OMe-RNA” value [2, 6] was 84% and the “densitometry of N40 synthesis yield, MOE-RNA” value [2, 6] was 65%.

In the case of CGATATGCAGTTTGAGAAGTCGCGCATTCG (XNA, all 2'-OMe (A,C,G,U)) [ARC224 2'OMe], the Kd (VEGF165 [3]) is reported as 23 nM.

Work on CGATATGCAGTTTGAGAAGTCGCGCATTCG (XNA, 2'-OMe U, 2'-O-MOE A, C and G) [ARC224 2'OMe-U MOE-ACG] yielded a Kd (VEGF165 [4]) of 92 nM.
